Measurements as given in publication doi:10.1101/393223, “Structures of the substrate-engaged 26S proteasome reveal the mechanisms for ATP hydrolysis-driven translocation” (bioRxiv, 2018).

Biological target: T1, Rpn11 (3XFLAG-tagged, in the 26S proteasome) (S. cerevisiae, UniProt P43588 1-306)
T1 construct: Rpn11, Zn2+-dependent deubiquitinase of the lid, S. cerevisiae; strain YYS40 RPN11::RPN11-3XFLAG; the catalytic Zn2+ is not visible in the structure; also called Rpn11 deubiquitinase; source: purified from S. cerevisiae strain YYS40 as part of the 26S proteasome (anti-FLAG, SEC)
Assay: cryo-EM structure; 26S proteasome (20 μM; 20 mM HEPES pH 7.6, 25 mM NaCl, 25 mM KCl, 10 mM MgCl2, 1 mM TCEP, 5 mM ATP, 0.05% NP-40, ATP regeneration system, 6 mM ortho-phenanthroline) mixed with an equal volume of 50 μM ubiquitinated model substrate and vitrified at once; single-particle analysis gave four substrate-engaged states (1D*, 5D, 5T, 4D)
Conditions: both partners purified

B1: ubiquitin (S. cerevisiae), the most proximal, substrate-attached moiety of the poly-ubiquitin chain (natural protein)
chain: not shown
modifications: C-terminus in an isopeptide bond with the substrate lysine; part of a K63-linked ubiquitin chain
notes: ubiquitin, S. cerevisiae; cut product of the ubiquitin precursors; Modeled at the Rpn11 active site in the 4D state with PDB 5U4P as template; also called ubiquitin moiety
Does B1 bind?
Result: binds
